Patent publication US8420311B2, “Method to block the infection by flaviviruses, molecules and uses” (Centro de Ingenieria Genetica y Biotecnologia, priority 2006, dated 2013)

What was measured:
DV = assay: Inhibition of the infection of Vero cells with DV by pre-incubation of the virus with A2M; type: cell-based, dengue virus; details: incubation times with virus longer than 30 minutes (FIG. 20B)
Method: FIG. 20. Inhibition of the infection of Vero cells with DV by pre-incubation with A2M. Viral preparations were incubated 1 h at 25° C. (A and C) or the indicated time (B) with the proteins i. e. activated A2M (A2Mact), non-activated A2M (A2M no act) and a non-related protein (NR). The mixtures of the proteins with the virus were added to monolayers of Vero cells and incubated for 1 h at 37° C. The cell monolayers were washed to eliminate non-bound virus. Next, medium MEM supplemented with non-essential amino acids and 1% FBS, 1% CMC was added and the cells were incubated for 5 days at 37° C. in a CO2 incubator. To visualize the viral plaques, Vero cells were stained using Naphtol Blue Black. All experimental points were performed on duplicates.
To obtain further evidences of the interaction of DV with A2M, the two variants of the protein i.e. activated and non-activated were used in assays of inhibition of infection of Vero cells. The viral preparation was incubated with solutions of activated A2M of higher concentrations than the physiological concentrations reached by this variant of the protein. Solutions of equimolar concentration of non-activated A2M and a non-related protein were used as negative controls. […]

[1] = biological target: T1, DIIIE2J (DIII from protein E of DV2) (Dengue virus type 2, UniProt P07564); assay: Direct binding between DIIIE2J and A2M measured by Biacore; design: species or system DV2 strain Jamaica 1409; details: A2M 0.3 to 3 μMol/L
T1 construct: made in house; host or cells: Escherichia coli BL21(DE3)
Method: FIG. 6. Direct binding between DIIIE2J and A2M, measured by Biacore. Response curves obtained during and after the injection of (B) Monoclonal antibodies against DV serotype 2 (3H5) and against all FV (4G2); (C) Polyclonal mouse antibody preparations obtained by immunization with DV1 and DV2, including pre-immune sera and (D) A2M dilutions, at concentrations from 0.3 μMol/L to 3 μMol/L. The run was performed on PBS pH 7.4 at 25° C. The different A2M dilutions were loaded at a flow of 5 μL/min for 20 min. The response is represented in resonance units (RU) corrected for unspecific binding using the response from the channel without immobilized protein (less than 5% of the specific signal).
A cm5 chip (Biacore, Sweden) was used for the covalent immobilization of the DIIIE2J and LRP1 proteins. The immobilization was carried out at 25° C., with a flow of 5 μL/min and using HBS (Biacore, Sweden) as running buffer. The surface of the chip was activated by loading 35 μL of 0.2 Mol/L […] (EDC) and 0.05 Mol/L N-hydroxysuccinimide (NHS). Afterwards the proteins, dissolved in 10 mM sodium acetate buffer pH 4.5, were loaded into the system. At the end of the immobilization, 35 μL of 1 M ethanolamine pH 8 were loaded into the system in order to block any remaining free activated groups. The channel to be used as a negative control in each case received only the activating injections with the EDC:NHS solution and the blocking with ethanolamine, employing the same flow and injection volume. The results were analyzed using the BIAevaluation ver. 4.1 software application package (Biacore, Sweden).
In order to estimate the strength of the interaction between DIIIE2J and human A2M, 1600 RU of DIIIE2J were covalently immobilized on a CM5 chip (channel 1, FIG. 6A) (Biacore, Sweden), following the procedure described in the Materials and Methods section. […]

T1 sequence (P07564 568-687, looked up, natural form): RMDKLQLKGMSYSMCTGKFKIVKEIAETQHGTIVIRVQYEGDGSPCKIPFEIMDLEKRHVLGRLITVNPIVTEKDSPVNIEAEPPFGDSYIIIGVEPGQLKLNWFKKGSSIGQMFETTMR

B1: non-activated A2M: non-activated variant of purified human A2M (protein)
chain: SVSGKPQYMVLVPSLLHTETTEKGCVLLSYLNETVTVSASLESVRGNRSLFTDLEAENDVLHCVAFAVPKSSSNEEVMFLTVQVKGPTQEFKKRTTVMVKNEDSLVFVQTDKSIYKPGQTVKFRVVSMDENFHPLNELIPLVYIQDPKGNRIAQWQSFQLEGGLKQFSFPLSSEPFQGSYKVVVQKKSGGRTEHPFTVEEFVLPKFEVQVTVPKIITILEEEMNVSVCGLYTYGKPVPGHVTVSICRKYSDASDCHGEDSQAFCEKFSGQLNSHGCFYQQVKTKVFQLKRKEYEMKLHTEAQIQEEGTVVELTGRQSSEITRTITKLSFVKVDSHFRQGIPFFGQVRLVDGKGVPIPNKVIFIRGNEANYYSNATTDEHGLVQFSINTTNVMGTSLTVRVNYKDRSPCYGYQWVSEEHEEAHHTAYLVFSPSKSFVHLEPMSHELPCGHTQTVQAHYILNGGTLLGLKKLSFYYLIMAKGGIVRTGTHGLLVKQEDMKGHFSISIPVKSDIAPVARLLIYAVLPTGDVIGDSAKYDVENCLANKVDLSFSPSQSLPASHAHLRVTAAPQSVCALRAVDQSVLLMKPDAELSASSVYNLLPEKDLTGFPGPLNDQDDEDCINRHNVYINGITYTPVSSTNEKDMYSFLEDMGLKAFTNSKIRKPKMCPQLQQYEMHGPEGLRVGFYESDVMGRGHARLVHVEEPHTETVRKYFPETWIWDLVVVNSAGVAEVGVTVPDTITEWKAGAFCLSEDAGLGISSTASLRAFQPFFVELTMPYSVIRGEAFTLKATVLNYLPKCIRVSVQLEASPAFLAVPVEKEQAPHCICANGRQTVSWAVTPKSLGNVNFTVSAEALESQELCGTEVPSVPEHGRKDTVIKPLLVEPEGLEKETTFNSLLCPSGGEVSEELSLKLPPNVVEESARASVSVLGDILGSAMQNTQNLLQMPYGCGEQNMVLFAPNIYVLDYLNETQQLTPEVKSKAIGYLNTGYQRQLNYKHYDGSYSTFGERYGRNQGNTWLTAFVLKTFAQARAYIFIDEAHITQALIWLSQRQKDNGCFRSSGSLLNNAIKGGVEDEVTLSAYITIALLEIPLTVTHPVVRNALFCLESAWKTAQEGDHGSHVYTKALLAYAFALAGNQDKRKEVLKSLNEEAVKKDNSVHWERPQKPKAPVGHFYEPQAPSAEVEMTSYVLLAYLTAQPAPTSEDLTSATNIVKWITKQQNAQGGFSSTQDTVVALHALSKYGAATFTRTGKAAQVTIQSSGTFSSKFQVDNNNRLLLQQVSLPELPGEYSMKVTGEGCVYLQTSLKYNILPEKEEFPFALGVQTLPQTCDEPKAHTSFQISLSVSYTGSRSASNMAIVDVKMVSGFIPLKPTVKMLERSNHVSRTEVSSNHVLIYLDKVSNQTLSLFFTVLQDVPVRDLKPAIVKVYDYYETDEFAIAEYNAPCSKDLGNA
B1 was tested, and the “increase of viral infection” value (DV) was at most 50%.

B2: A2M: human Alfa 2-macroglobulin purified from human plasma, Seq. ID. 2 (protein, listed as Homo sapiens)
chain: MGKNKLLHPSLVLLLLVLLPTDASVSGKPQYMVLVPSLLHTETTEKGCVLLSYLNETVTVSASLESVRGNRSLFTDLEAENDVLHCVAFAVPKSSSNEEVMFLTVQVKGPTQEFKKRTTVMVKNEDSLVFVQTDKSIYKPGQTVKFRVVSMDENFHPLNELIPLVYIQDPKGNRIAQWQSFQLEGGLKQFSFPLSSEPFQGSYKVVVQKKSGGRTEHPFTVEEFVLPKFEVQVTVPKIITILEEEMNVSVCGLYTYGKPVPGHVTVSICRKYSDASDCHGEDSQAFCEKFSGQLNSHGCFYQQVKTKVFQLKRKEYEMKLHTEAQIQEEGTVVELTGRQSSEITRTITKLSFVKVDSHFRQGIPFFGQVRLVDGKGVPIPNKVIFIRGNEANYYSNATTDEHGLVQFSINTTNVMGTSLTVRVNYKDRSPCYGYQWVSEEHEEAHHTAYLVFSPSKSFVHLEPMSHELPCGHTQTVQAHYILNGGTLLGLKKLSFYYLIMAKGGIVRTGTHGLLVKQEDMKGHFSISIPVKSDIAPVARLLIYAVLPTGDVIGDSAKYDVENCLANKVDLSFSPSQSLPASHAHLRVTAAPQSVCALRAVDQSVLLMKPDAELSASSVYNLLPEKDLTGFPGPLNDQDDEDCINRHNVYINGITYTPVSSTNEKDMYSFLEDMGLKAFTNSKIRKPKMCPQLQQYEMHGPEGLRVGFYESDVMGRGHARLVHVEEPHTETVRKYFPETWIWDLVVVNSAGVAEVGVTVPDTITEWKAGAFCLSEDAGLGISSTASLRAFQPFFVELTMPYSVIRGEAFTLKATVLNYLPKCIRVSVQLEASPAFLAVPVEKEQAPHCICANGRQTVSWAVTPKSLGNVNFTVSAEALESQELCGTEVPSVPEHGRKDTVIKPLLVEPEGLEKETTFNSLLCPSGGEVSEELSLKLPPNVVEESARASVSVLGDILGSAMQNTQNLLQMPYGCGEQNMVLFAPNIYVLDYLNETQQLTPEVKSKAIGYLNTGYQRQLNYKHYDGSYSTFGERYGRNQGNTWLTAFVLKTFAQARAYIFIDEAHITQALIWLSQRQKDNGCFRSSGSLLNNAIKGGVEDEVTLSAYITIALLEIPLTVTHPVVRNALFCLESAWKTAQEGDHGSHVYTKALLAYAFALAGNQDKRKEVLKSLNEEAVKKDNSVHWERPQKPKAPVGHFYEPQAPSAEVEMTSYVLLAYLTAQPAPTSEDLTSATNIVKWITKQQNAQGGFSSTQDTVVALHALSKYGAATFTRTGKAAQVTIQSSGTFSSKFQVDNNNRLLLQQVSLPELPGEYSMKVTGEGCVYLQTSLKYNILPEKEEFPFALGVQTLPQTCDEPKAHTSFQISLSVSYTGSRSASNMAIVDVKMVSGFIPLKPTVKMLERSNHVSRTEVSSNHVLIYLDKVSNQTLSLFFTVLQDVPVRDLKPAIVKVYDYYETDEFAIAEYNAPCSKDLGNA
B2 was tested, and the “nature of the interaction between both proteins” value [1] was “saturable and reversible” and the Kd ([1]; immobilized DIIIE2J, PBS pH 7.4 at 25° C., read-out: apparent Kd) was about 100 nM.
